Measured values taken from publication PMC3196576.

Key:
[1] = target: GroEL CP376 (E. coli) (UniProt P0A6F5); test: SEC; gel filtration profiles observed during purification (AKTA FPLC, 4°C); data not shown
[2] = target: GroEL CP376-RW (E. coli) (UniProt P0A6F5); test: as above
[3] = target: GroEL CP376-RW (E. coli) (UniProt P0A6F5); test: negative-stain electron microscopy; GroEL alone, 0.25 mg/ml in 50 mM triethanolamine pH 7.5, 20 mM MgCl2, 50 mM KCl; 1% uranyl acetate

Substance	stoichiometry N [1]	stoichiometry N [2]	stoichiometry N [3]
GroEL CP376 (from UniProt P0A6F5 376-548; P0A6F5 2-374)	14	–	–
GroEL CP376-RW (from UniProt P0A6F5 376-548; P0A6F5 2-374)	–	14	14
